T1: IL-18Rα ECD (human)
T1 chain: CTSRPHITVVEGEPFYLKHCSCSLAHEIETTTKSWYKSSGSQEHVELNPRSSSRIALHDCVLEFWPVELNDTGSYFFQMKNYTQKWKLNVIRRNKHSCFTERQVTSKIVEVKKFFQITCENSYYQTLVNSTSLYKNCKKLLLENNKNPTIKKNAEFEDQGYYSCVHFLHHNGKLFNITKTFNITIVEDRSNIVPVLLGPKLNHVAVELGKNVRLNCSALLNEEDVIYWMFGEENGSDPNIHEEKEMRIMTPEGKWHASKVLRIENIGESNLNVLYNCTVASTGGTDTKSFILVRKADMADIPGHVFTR

T2: IL-18Rβ ECD (human)
T2 chain: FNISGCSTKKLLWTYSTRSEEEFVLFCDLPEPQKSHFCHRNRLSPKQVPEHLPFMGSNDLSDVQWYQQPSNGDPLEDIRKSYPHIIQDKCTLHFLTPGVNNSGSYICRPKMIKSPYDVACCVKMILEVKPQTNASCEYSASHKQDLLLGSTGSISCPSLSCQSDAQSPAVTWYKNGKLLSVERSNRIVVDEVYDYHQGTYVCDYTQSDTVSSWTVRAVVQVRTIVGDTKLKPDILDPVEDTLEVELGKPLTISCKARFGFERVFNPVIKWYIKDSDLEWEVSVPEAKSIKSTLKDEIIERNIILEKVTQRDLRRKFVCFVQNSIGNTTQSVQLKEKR


Biological target: T1, IL-18Rα ECD
Assay: BLI

Row | binding result | Binder
1 | no binding | ms_IL18R_VHHβ14 (antibody, V domains shown) VH: DVPLQESGGGLVQAGGSLRLSCAASDRTVSKGAMGWFRQAPGKEREFVATIGRSSGITYYADSVKGRFTISRDNAKNTWYLQMNSLRPEDTAVYYCAADSSGIIRTTSWAYDYWGQGTQVTVSS
2 | no binding | ms_IL18R_VHHβ13 (antibody, V domains shown) VH: DVQLQESGGGLVQPGGSLRLSCAASGISFRVNVLGWYRQAPGKPRELVASISSGDSTNYADSVKGRFTISRDNAKSTVYLQMNNLKPEDTAVYYCNARIFARDNWGQGTQVTVSS
3 | no binding | ms_IL18R_VHHβ16 (antibody, V domains shown) VH: DVQLQESGGGSVPAGGSLRLSCSASGFTTDDYIIGWFRQAPGKKREGVSCISTTDGSAWYADSVKGRFTISSDNANNTVTLQMNSLLPEDTSVYYCAEVSTGTGVLYCREEFYFGMDSWGKGTPVTVSS
4 | no binding | ms_IL18R_VHHβ12 (antibody, V domains shown) VH: DVPLQESGGGLVQPGGSLRLSCRASGVGFSIYTMGWYRQAPGEQRHLVATVTTGGHINYGDSVQGRFTISRENNGNVVELQMHSLKPEDTAVYFCNAIYFGQDIWGQGTQVTVSS
5 | no binding | ms_IL18R_VHHβ15 (antibody, V domains shown) VH: DVQLQESGGGLVQPGGSLRLSCAASGRFFTINAMGWYRQTPGKQRELVAAITSDGSTTYQDSVKGRFTISRDNANRTANLYMNSLKSEDTAVYYCNADGRFNDNGYVKNFNIWGQGTQVTVSS
6 | no binding | ms_IL18R_VHHβ21 (antibody, V domains shown) VH: DVQLQESGGGLVQAGGSLRLSCAASGITFSPYVMGWYRQAPGKQRELVADMVNGGSTNYADSVKGRFTIFRDTAANTVTLQMNNLKPDDTAVYYCHIMIFGRASWGQGTQVTVSS
7 | no binding | ms_IL18R_VHHβ19 (antibody, V domains shown) VH: DVQLQESGGGLVQAGGSLRLSCAASGIRFNPFRMAWYRQAPGKQRELVAAIDSGGSTDYADSVRGRFTISRDNAKITVSLQMNSLKPEDTAVYYCNTQIFARDYWGQGSQVTVSS
8 | no binding | ms_IL18R_VHHβ18 (antibody, V domains shown) VH: DVQLQESGGGLVQAGGSLRLSCAASGRTFSSYAMGWFRQAPGMVREFVAAISWSGGSTYYADSVQGRFTISRDNAKNTVYLQMNSLKPEDTAVYYCAADRSLSGSYFGATIDYWGQGTQVTVSS
9 | no binding | ms_IL18R_VHHβ20 (antibody, V domains shown) VH: DVQLQESGGGLVQAGGSLRLSCAASVSAFRLKVMGWYRQAPGKEREFVAAIDSGDTKSYTNAVKGRFTISGGAATNTVVLQMNSLKPEDTAFYYCNAVLFGRDYWGQGTQVTVSS
10 | no binding | ms_IL18R_VHHβ22 (antibody, V domains shown) VH: DVPLQESGGGLVQPGGSLRLSCAAPGFALEYYAIGWFRQAPGKEREGLSCVSSSRSGGSTVYADSVKGRFTISRDNAKNTVYLQIDSLKVEDTAVYYCAGAPAYRSHYCRLQADDYTYWGQGTQVTVSS
11 | no binding | ms_IL18R_VHHβ17 (antibody, V domains shown) VH: DVPLQESGGGLVQAGGSLRLSCVASGFALDEIAVGWFRQAPGKEREGLSCISSSDGSTLYADSVKGRFTISSDNAKNTVYLQMNSLKPEDTAVYLCAAVRGSCFGRTTHWGQGTQVTVSS

These binders were tested against IL-18BP (human) (assay: BLI).

Row | Binder | binding result
12 | IL18R_tanVHHα2β15 (antibody, V domains shown) V domain 1: DVQLQESGGGLVQAGGSLRLSCAASGFTLLDSYDIGWFRQAPGKKREEVSCISSSGGKSTYYADSVKGRFTISRDNANNTVYLQMNSLKPEDTAVYYCAADGAEGFWSCQSGGYDYWGQGTQVTVSS V domain 2: DVQLQESGGGLVQPGGSLRLSCAASGRFFTINAMGWYRQTPGKQRELVAAITSDGSTTYQDSVKGRFTISRDNANRTANLYMNSLKSEDTAVYYCNADGRFNDNGYVKNFNIWGQGTQVTVSS | no binding
13 | IL18R_VHHα8β17 (antibody, V domains shown) V domain 1: DVQLQESGGGLVQAGGSLRLSCAASGRTFSNDAMGWFRQAPGKEREFVAAVSWSLGMTYNADSVKGRFTISRDNAKNTVYLQMNSLKPDDTAVYYCAAGPDLSDELYGYDYWGQGTQVTVSS V domain 2: DVPLQESGGGLVQAGGSLRLSCVASGFALDEIAVGWFRQAPGKEREGLSCISSSDGSTLYADSVKGRFTISSDNAKNTVYLQMNSLKPEDTAVYLCAAVRGSCFGRTTHWGQGTQVTVSS | no binding

Continued, values first:

Row | binding result | Binder
14 | no binding | IL18R_VHHα2β17 (antibody, V domains shown) V domain 1: DVQLQESGGGLVQAGGSLRLSCAASGFTLLDSYDIGWFRQAPGKKREEVSCISSSGGKSTYYADSVKGRFTISRDNANNTVYLQMNSLKPEDTAVYYCAADGAEGFWSCQSGGYDYWGQGTQVTVSS V domain 2: DVPLQESGGGLVQAGGSLRLSCVASGFALDEIAVGWFRQAPGKEREGLSCISSSDGSTLYADSVKGRFTISSDNAKNTVYLQMNSLKPEDTAVYLCAAVRGSCFGRTTHWGQGTQVTVSS
15 | no binding | IL18R_VHHα8β15 (antibody, V domains shown) V domain 1: DVQLQESGGGLVQAGGSLRLSCAASGRTFSNDAMGWFRQAPGKEREFVAAVSWSLGMTYNADSVKGRFTISRDNAKNTVYLQMNSLKPDDTAVYYCAAGPDLSDELYGYDYWGQGTQVTVSS V domain 2: DVQLQESGGGLVQPGGSLRLSCAASGRFFTINAMGWYRQTPGKQRELVAAITSDGSTTYQDSVKGRFTISRDNANRTANLYMNSLKSEDTAVYYCNADGRFNDNGYVKNFNIWGQGTQVTVSS

Biological target: T2, IL-18Rβ ECD
Assay: BLI

Row | binding result | Binder
16 | no binding | ms_IL18R_VHHα9 (antibody, V domains shown) VH: DVQLQESGGGLVQPGESLRLSCTASRSDFSRYTMGWYRQAPGKWRELVARITSGGIPHYADSVKGRFTISRDNAKNTVTLQMNTLQFEDSAVYYCNTVGVALWAWGQGTLVTVSS
17 | no binding | ms_IL18R_VHHα2 (antibody, V domains shown) VH: DVQLQESGGGLVQAGGSLRLSCAASGFTLLDSYDIGWFRQAPGKKREEVSCISSSGGKSTYYADSVKGRFTISRDNANNTVYLQMNSLKPEDTAVYYCAADGAEGFWSCQSGGYDYWGQGTQVTVSS
18 | no binding | ms_IL18R_VHHα11 (antibody, V domains shown) VH: DVPLQESGGGLVQPGQSLRLSCAASGSPIRFSVMGWFQQAPGKGRDLIARITSGGIVYYTDSVKGRFTISKDNAKNTLYLQMNSLNLEDTGVYYCNRLGGALFDWGQGTQVTVSS
19 | no binding | ms_IL18R_VHHα4 (antibody, V domains shown) VH: DVQLQESGGGLVQAGGSLRLSCAASGFTLGAYAINWFQQAPGKERARAWVLCITSSGGSAYYVDSVKGRFTVSRDNAKNTVYLQMNSLKPEDTAFYYCAAGGACAAAETMNYWGKGTLVTVSS
20 | no binding | ms_IL18R_VHHα3 (antibody, V domains shown) VH: DVQLQESGGGLVQAGGSLRLSCAASGFTLGAYAINWFRQAPGKERARAWDACITSSGRSAYYADSVKGRFTVSRDHAKNTVYLQMNSLKPEDTAFYYCAAGAACAAAGTMNYWGKGTLVTVSS
21 | no binding | ms_IL18R_VHHβ19 (antibody, V domains shown) VH: DVQLQESGGGLVQAGGSLRLSCAASGIRFNPFRMAWYRQAPGKQRELVAAIDSGGSTDYADSVRGRFTISRDNAKITVSLQMNSLKPEDTAVYYCNTQIFARDYWGQGSQVTVSS
22 | no binding | ms_IL18R_VHHα1 (antibody, V domains shown) VH: DVPLQESGGGLVQTGGSLRLSCAASGFTFNSYAMGWYQQAPGKKYRELVAHIGSGGSTRYIDSVKGRFTISRDNAKNTVYLQMNSLKPEDTAVYYCNVYGATLRSWGQGTQVTVSS
23 | no binding | ms_IL18R_VHHα5 (antibody, V domains shown) VH: DVQLQESGGGLVQAGGSLRLSCAASGRTFSNLAMAWFRQAPGKEREFVAAIDWNGDNRLYAASVKGRFTISRDNAKSTMYLQMNSLKPEDTAVYYCAADSTYSTDWYLNPLNRTRYDYWGQGTQVTVSS
24 | no binding | ms_IL18R_VHHα7 (antibody, V domains shown) VH: DVQLQESGGGLVQAGGSLRLSCAASGHTFNNLAMAWCRQAPGKEREFVSAIDWNGDNRLYAYSVKGRFTISRDNAKSTMYLQMNSLKPEDTAVYYCAADSTYSTNWYLDPLNRTTYNYWGQGTPVTVSS
25 | no binding | ms_IL18R_VHHα6 (antibody, V domains shown) VH: DVPLQESGGGSVQPGGSLRLSCAASKSIFSINAMRWHRQAPGKQRELVATFTSSGRINYADSVKGRFTISTDNAKNTIYLQMNSLNPEDTAVYRCNVGLWEDGLWYDYWGQGTQVTVSS
26 | no binding | ms_IL18R_VHHα10 (antibody, V domains shown) VH: DVQLQESGGGLVQAGGSLRLSCAASGLPFSSYAMGWFRQAPGKDREFVAGITWSGSSIYYRDSVKGRFTISRDNAKNTVWLQMNDLKPEDTAVYYCAAARRRVGLPLADPREYVYWGQGTQVTVSS
27 | no binding | ms_IL18R_VHHα8 (antibody, V domains shown) VH: DVQLQESGGGLVQAGGSLRLSCAASGRTFSNDAMGWFRQAPGKEREFVAAVSWSLGMTYNADSVKGRFTISRDNAKNTVYLQMNSLKPDDTAVYYCAAGPDLSDELYGYDYWGQGTQVTVSS

From patent publication US20260347486 (published 2026)
